Laboratory results as given in PMC5293408 (Biochemistry, 2016).
“And” between values parts separate entries of the source, which are not always exact repeats. Equal values may be shown once. Read-outs that look alike come from different tables or passages of the source.

T1: hUGDHA136M (human UDP-glucose dehydrogenase A136M) (Homo sapiens, UniProt O60701, A136M)
T1 sequence (O60701 1-494 A136M): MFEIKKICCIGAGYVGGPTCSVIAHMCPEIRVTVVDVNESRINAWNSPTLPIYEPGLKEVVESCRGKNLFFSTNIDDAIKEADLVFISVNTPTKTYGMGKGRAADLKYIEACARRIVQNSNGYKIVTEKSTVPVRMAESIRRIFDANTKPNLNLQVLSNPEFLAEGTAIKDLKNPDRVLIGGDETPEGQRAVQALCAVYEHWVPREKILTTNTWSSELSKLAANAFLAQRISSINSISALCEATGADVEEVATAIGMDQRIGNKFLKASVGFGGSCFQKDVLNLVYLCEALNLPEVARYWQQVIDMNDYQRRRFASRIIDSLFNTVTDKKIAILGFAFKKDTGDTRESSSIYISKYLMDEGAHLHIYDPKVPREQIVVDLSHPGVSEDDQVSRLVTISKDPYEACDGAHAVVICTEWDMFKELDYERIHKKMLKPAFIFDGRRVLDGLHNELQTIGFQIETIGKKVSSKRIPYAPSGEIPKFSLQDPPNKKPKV


Legend:
[1] = target: T1, hUGDHA136M (human UDP-glucose dehydrogenase A136M); test: steady-state kinetics, global fit of competitive inhibition; format: biochemical
[2] = substrate: NC(=O)c1ccc[n+]([C@@H]2O[C@H](COP(=O)([O-])OP(=O)(O)OC[C@H]3O[C@@H](n4cnc5c(N)ncnc54)[C@H](O)[C@@H]3O)[C@@H](O)[C@H]2O)c1; test: steady-state NAD+ saturation kinetics; format: biochemical, Homo sapiens; settings: NAD+ binding domain (NB); varied: cofactor
AUC [3] = target: the molecule itself; test: AUC
AUC [4] = target: the molecule itself; test: AUC; remark: listed apart in the source

Ki [1] | Molecule | Km [2] | stoichiometry N (AUC [3]) | stoichiometry N (AUC [4])
4.2 µM | O=c1ccn([C@@H]2O[C@H](COP(=O)(O)OP(=O)(O)O[C@H]3OC[C@@H](O)[C@H](O)[C@H]3O)[C@@H](O)[C@H]2O)c(=O)[nH]1 [UDP-xylose] |  |  | 
 | Human UDP-glucose dehydrogenase with the A136M substitution (enzyme) MFEIKKICCIGAGYVGGPTCSVIAHMCPEIRVTVVDVNESRINAWNSPTLPIYEPGLKEVVESCRGKNLFFSTNIDDAIKEADLVFISVNTPTKTYGMGKGRAADLKYIEACARRIVQNSNGYKIVTEKSTVPVRMAESIRRIFDANTKPNLNLQVLSNPEFLAEGTAIKDLKNPDRVLIGGDETPEGQRAVQALCAVYEHWVPREKILTTNTWSSELSKLAANAFLAQRISSINSISALCEATGADVEEVATAIGMDQRIGNKFLKASVGFGGSCFQKDVLNLVYLCEALNLPEVARYWQQVIDMNDYQRRRFASRIIDSLFNTVTDKKIAILGFAFKKDTGDTRESSSIYISKYLMDEGAHLHIYDPKVPREQIVVDLSHPGVSEDDQVSRLVTISKDPYEACDGAHAVVICTEWDMFKELDYERIHKKMLKPAFIFDGRRVLDGLHNELQTIGFQIETIGKKVSSKRIPYAPSGEIPKFSLQDPPNKKPKV | 90 µM | 6 and 2 and 4 | 
 | Human UDP-glucose dehydrogenase (enzyme, UniProt O60701 1-494, looked up) MFEIKKICCIGAGYVGGPTCSVIAHMCPEIRVTVVDVNESRINAWNSPTLPIYEPGLKEVVESCRGKNLFFSTNIDDAIKEADLVFISVNTPTKTYGMGKGRAADLKYIEACARRIVQNSNGYKIVTEKSTVPVRAAESIRRIFDANTKPNLNLQVLSNPEFLAEGTAIKDLKNPDRVLIGGDETPEGQRAVQALCAVYEHWVPREKILTTNTWSSELSKLAANAFLAQRISSINSISALCEATGADVEEVATAIGMDQRIGNKFLKASVGFGGSCFQKDVLNLVYLCEALNLPEVARYWQQVIDMNDYQRRRFASRIIDSLFNTVTDKKIAILGFAFKKDTGDTRESSSIYISKYLMDEGAHLHIYDPKVPREQIVVDLSHPGVSEDDQVSRLVTISKDPYEACDGAHAVVICTEWDMFKELDYERIHKKMLKPAFIFDGRRVLDGLHNELQTIGFQIETIGKKVSSKRIPYAPSGEIPKFSLQDPPNKKPKV |  | 6 | 2 and 4
